The text below walks through data of patent US20230340069A1.

Assay [1] concerns the target human IgG1. The assay is described as follows: ELISA, IgG1 antibody coated on plate, detection with Strep-Tactin-HRP.
Assay [2] addresses Polyclonal human IgG Gammanorm (human). The experiment in a line: Fc binding protein coupled to Praesto Pure45 agarose beads; polyclonal human IgG Gammanorm (2.2 mg/ml) loaded; mass of hIgG injected at 10% breakthrough, 6 min residence time.

By Kd is commonly meant the constant that tells how readily two partners part at equilibrium.

Substance Protein A domain Z registered a Kd in assay [1] of 3.4 nM.

As to R PROTEIN A, the dynamic binding capacity in assay [2] is 37.4 mg/mL.
